Assay results: patent publication US20040072168A1, “Novel deoxynucleoside kinase enzyme variants” (priority 2000, published 2004)

Tests used:
[1] = system: TK deficient E. coli strain KY895; assay: Determination of LD100 of nucleoside analogues on M9 plates, E. coli KY895 transformed with kinase variant plasmids; assay type: cell-based; settings: KY895 expressing the variant
From the text: The mutagenized PCR fragments were purified by the PCR Kit from Boehringer Mannhein, cut with BamHI and EcoRI and sub-cloned into the multiple cloning site of the pGEX-2T plasmid vector. The TK deficient E. coli strain KY895 [F tdk-1 ilv] [Igarashi K, Hiraga S & Yura T: A deoxythymidine kinase deficient mutant of Eschericha coli. II. Mapping and transduction studies with phage Φ80; Genetics 1967 57 643-6541, was electro-transformed with the ligation mix, using standard techniques, and plated on LB-ampicillin (100 μg/ml) plates.
Overnight cultures of these colonies were diluted 200-fold in 10% glycerol and 2 μl drops of the dilution were spotted on M9 minimal medium plates [Ausubel F, Brent R, Kingston R E, Moore D D, Seidman J G, Smith J A & Struhl K (Eds.): Short protocols in molecular biology; Wiley, USA, 3rd Edition, 1995, p.1-2] supplemented with 0.2% glucose, 40 μg/ml isoleucine, 40 μg/ml valine, 100 μg/ml ampicillin and with or without nucleoside analogues.
All clones with increased sensitivity towards at least one nucleoside analogue were tested on M9 plates with logarithmic dilution of the nucleoside analogues to determine the lethal dose (LD100) of the nucleoside analogues, at which no growths of bacteria could be seen.
Plates were prepared by mixing the medium with the analogues at the lowest temperature possible, before pouring the plates.

[2] = cited from earlier work

B1: Dm-dNK: wild-type Drosophila melanogaster deoxyribonucleoside kinase (SEQ ID NO: 1) (protein)
chain: MAEAASCARKGTKYAEGTQPFTVLIEGNIGSGKTTYLNHFEKYKNDICLLTEPVEKWRNVNGVNLLELMYKDPKKWAMPFQSYVTLTMLQSHTAPTNKKLKIMERSIFSARYCFVENMRRNGSLEQGMYNTLEEWYKFIEESIHVQADLIIYLRTSPEVAYERIRQRARSEESCVPLKYLQELHELHEDWLIHQRRPQSCKVLVLDADLNLENIGTEYQRSESSIFDAISSNQQPSPVLVSPSKRQRVAR
modifications: Drosophila melanogaster; CDS (1)..(750)
[1]; lethal dose (no growth of bacteria) of araC, range 3.16-1000 μM
  LD100 araC: 1000 µM
[1]; lethal dose of 2CdA, range 0.0316-100 μM, second line of last column
  LD100 2CdA: 100 µM
[1]; lethal dose of AZT, range 0.01-100 μM
  LD100 AZT: 100 µM
[1]; lethal dose of araA, range 10-1000 μM, third line of last column
  LD100 araA: >1000 µM
[1]; lethal dose of ddA, range 0.316-31.6 μM
  LD100 ddA: 31.6 µM
[1]; lethal dose of ddC, range 10-3500 μM, first line of last column
  LD100 ddC: >3500 µM
[2]; depending on the substrate
  catalytic rate of deoxyribonucleoside phosphorylation, higher than reported for any of the mammalian deoxyribonucleoside kinases: 4-20,000 fold
[2]; thymidine, versus HSV1-TK
  turnover of thymidine, higher than catalysed by HSV1 thymidine kinase: 70 fold
